Positions count from the first letter of the chain named. In names and notes the source's numbering stands.
What was measured:
FcγRIIb [1] = target: T1, FcγRIIb (human, UniProt P31994 43-217, limits assumed); experiment: ratio of SPR KD values of this variant (FcγRIIaH over FcγRIIb)
T1 construct: also called FcγIIB; FcgRIIb
T1 sequence: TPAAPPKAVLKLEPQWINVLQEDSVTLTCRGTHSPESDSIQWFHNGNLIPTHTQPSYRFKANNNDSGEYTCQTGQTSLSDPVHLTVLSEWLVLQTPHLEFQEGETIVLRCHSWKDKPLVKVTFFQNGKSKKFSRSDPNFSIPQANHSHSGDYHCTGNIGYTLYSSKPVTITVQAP
Text: (§1) Furthermore, KD(IIaR)/KD(IIb) and KD(IIaH)/KD(IIb) in the table respectively represent the value obtained by dividing the KD value of each variant for FcγRIIaR by the KD value of each variant for FcγRIIb, and the value obtained by dividing the KD value of each variant for FcγRIIaH by the KD value of each variant for FcγRIIb.

FcγRIIb [2] = target: T1, FcγRIIb; experiment: ratio of SPR KD values of this variant (FcγRIIaR over FcγRIIb)
Text: as §1

FcγRIIa type H = target: T2, FcγRIIa type H (human, UniProt P12318 36-217); experiment: SPR (Biacore), captured antibody, FcγR as analyte, method of Example 14
T2 construct: also called FcγRIIaH; FcγRIIa(H)
T2 sequence: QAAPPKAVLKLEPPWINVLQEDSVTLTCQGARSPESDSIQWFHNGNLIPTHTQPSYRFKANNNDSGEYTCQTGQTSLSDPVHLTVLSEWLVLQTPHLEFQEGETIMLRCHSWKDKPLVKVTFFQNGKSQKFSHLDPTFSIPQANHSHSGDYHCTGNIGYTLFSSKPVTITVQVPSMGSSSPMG

FcγRIIb [3] = target: T1, FcγRIIb; experiment: ratio of SPR KD values; parent polypeptide is IL6R-B3/IL6R-L
Text: as §1

human FcγRIIb [4] = target: T3, human FcγRIIb (human, UniProt P31994 43-217, limits assumed); experiment: SPR (Biacore) KD; ratio against the KD for FcγRIIaH
T3 construct: also called hFcgRIIb
T3 sequence: T1 sequence

human FcγRIIb [5] = target: T3, human FcγRIIb; experiment: SPR (Biacore) KD; ratio against the KD for FcγRIIaR
mouse FcγRIII = target: T4, mouse FcγRIII (mouse, UniProt P08508 31-215); experiment: SPR (Biacore), protein L capture, pH 7.4, 25 C
T4 construct: Bought; also called mFcgRIII
T4 sequence (looked up): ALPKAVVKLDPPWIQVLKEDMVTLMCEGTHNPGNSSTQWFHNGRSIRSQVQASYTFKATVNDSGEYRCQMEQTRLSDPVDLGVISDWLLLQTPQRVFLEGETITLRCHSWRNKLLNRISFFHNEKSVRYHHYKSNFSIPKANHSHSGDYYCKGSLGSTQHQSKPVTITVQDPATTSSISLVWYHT

mouse FcγRIIb = target: T5, mouse FcγRIIb (mouse, UniProt P08101 40-217, limits assumed); experiment: SPR (Biacore), protein L capture, pH 7.4, 25 C
T5 construct: Bought; also called mFcgRIIb
T5 sequence (looked up): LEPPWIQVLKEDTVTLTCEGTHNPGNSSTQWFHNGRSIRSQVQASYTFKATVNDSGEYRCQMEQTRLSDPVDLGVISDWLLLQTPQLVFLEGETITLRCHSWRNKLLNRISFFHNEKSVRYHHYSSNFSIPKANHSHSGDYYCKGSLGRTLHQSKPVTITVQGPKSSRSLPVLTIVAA

mouse FcγRI = target: T6, mouse FcγRI (mouse, UniProt P26151 25-297); experiment: SPR (Biacore), protein L capture, pH 7.4, 25 C
T6 construct: Bought; also called mFcgRI
T6 sequence (looked up): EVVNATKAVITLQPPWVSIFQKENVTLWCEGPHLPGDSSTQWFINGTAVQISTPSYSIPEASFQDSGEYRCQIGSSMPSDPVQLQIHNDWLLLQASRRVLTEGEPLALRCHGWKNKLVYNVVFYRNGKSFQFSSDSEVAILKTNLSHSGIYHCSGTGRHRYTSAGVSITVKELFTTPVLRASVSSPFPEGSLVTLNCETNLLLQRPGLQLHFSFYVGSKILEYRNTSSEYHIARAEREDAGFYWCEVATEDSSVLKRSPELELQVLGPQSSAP

human FcγRIIb [6] = target: T7, human FcγRIIb (human, UniProt P31994 43-217, limits assumed); experiment: SPR (Biacore), antibody captured, FcγR as analyte
T7 construct: also called FcgRIIb; FcγIIB
T7 sequence: T1 sequence

human FcγRIIIa(F) = target: T8, human FcγRIIIa(F) (human, UniProt P08637 17-208, limits assumed); experiment: SPR (Biacore), captured antibody, FcgR as analyte, HBS-EP+, 25 C; bound amount corrected for captured antibody, relative to GpH7-G1d/GpL16-k0
T8 construct: also called hFcgRIIIa(F); allotype F158
T8 sequence (P08637 other isoform, or with tags, fused parts or gaps limits assumed): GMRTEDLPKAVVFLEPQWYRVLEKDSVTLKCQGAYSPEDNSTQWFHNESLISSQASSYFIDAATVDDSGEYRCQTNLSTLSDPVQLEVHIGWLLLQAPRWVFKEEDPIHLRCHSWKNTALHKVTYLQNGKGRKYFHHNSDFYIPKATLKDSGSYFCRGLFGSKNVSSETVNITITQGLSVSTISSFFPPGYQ
Experimental: Interaction between each modified antibody and Fcγ receptor prepared in the manner described above was analyzed using the Biacore T100 (GE Healthcare), Biacore T200 (GE Healthcare), Biacore A100 or Biacore 4000. HBS-EP+ (GE Healthcare) was used for the running buffer, and measurements were carried out at 25° C. The chips used were chips in which antigen peptides, Protein A (Thermo Scientific), Protein A/G (Thermo Scientific) or Protein L (ACTIGEN or BioVision) were immobilized on the Series S Sensor Chip CM5 (GE Healthcare) or Series S Sensor Chip CM4 (GE Healthcare) by amine coupling, or chips in which preliminarily biotinylated antigen peptides were allowed to interact and then immobilized on the Series S Sensor Chip SA (certified) (GE Healthcare). The target antibodies were captured on these sensor chips, Fcγ receptor diluted with the running buffer was allowed to interact, followed by measurement of the amount of bound antibody. The amounts bound were compared between antibodies. However, since the amount of Fcγ receptor bound depends on the amount of captured antibody, the values used for comparison were first corrected by dividing the amount of Fcγ receptor bound by the captured amount of each antibody. Through reaction with 10 mM glycine-HCl at pH 1.5, the sensor chips were regenerated by washing off antibody captured on the sensor chips and used repeatedly.

B1: IL6R-BP149/IL6R-L (antibody, human IgG1)
heavy: QVQLQESGPGLVKPSETLSLTCAVSGHSISHDHAWSWVRQPPGEGLEWIGFISYSGITNYNPSLQGRVTISRDNSKNTLYLQMNSLRAEDTAVYYCARSLARTTAMDYWGEGTLVTVSSASTKGPSVFPLAPSSKSTSGGTAALGCLVKDYFPEPVTVSWNSGALTSGVHTFPAVLQSSGLYSLSSVVTVPSSSLGTQTYICNVNHKPSNTKVDKKVEPKSCDKTHTCPPCPAPDYLGDDSVFLFPPKPKDTLMISRTPEVTCVVVDVSHEDPEVKFNWYVDGVEVHNAKTKPREEQDNSTYRVVSVLTVLHQDWLNGKEYKCKVSNAALPKPIEKTISKAKGQPREPQVYTLPPSRDELTKNQVSLTCLVKGFYPSDIAVEWESNGQPENNYKTTPPVLDSDGSFFLYSKLTVDKSRWQQGNVFSCSVMHEALHNHYTQESLSLSP
light: DIQMTQSPSSLSASVGDRVTITCRASQDISSYLNWYQQKPGKAPKLLIYYTSRLHSGVPSRFSGSGSGTDFTFTISSLQPEDIATYYCQQGNTLPYTFGQGTKVEIK
notes: EU numbering
B1 was tested, and the “KD (IIaH)/KD (IIb)” value (FcγRIIb [1]) was 89.9, the “KD (IIaR)/KD (IIb)” value (FcγRIIb [2]) was 13 and the Kd (FcγRIIa type H) was 5.4 µM. For the same binder, the “KD(IIb) of the parent polypeptide/KD(IIb) of the altered polypeptide” value (FcγRIIb [3]) was 53.1.

B2: IL6R-F11/IL6R-L (antibody, human IgG1)
heavy: not shown
light: B1 light
notes: copies: 2 + 2
B2 was tested, and the “KD value for FcγRIIaH/KD value for FcγRIIb” value (human FcγRIIb [4]) was 0.7 and the “KD value for FcγRIIaR/KD value for FcγRIIb” value (human FcγRIIb [5]) was 0.7.

B3: IL6R-B3/IL6R-L (antibody, human IgG1)
heavy: not shown
light: B1 light
notes: copies: 2 + 2
With B3 the “KD value for FcγRIIaH/KD value for FcγRIIb” value (human FcγRIIb [4]) was 0.2 and the “KD value for FcγRIIaR/KD value for FcγRIIb” value (human FcγRIIb [5]) was 0.3.

B4: mPM1-mIgG1-mF39 (antibody)
heavy: DVQLQESGPVLVKPSQSLSLTCTVTGYSITSDHAWSWIRQFPGNKLEWMGYISYSGITTYNPSLKSRISITRDTSKNQFFLQLNSVTTGDTSTYYCARSLARTTAMDYWGQGTSVTVSSAKTTPPSVYPLAPGSAAQTNSMVTLGCLVKGYFPEPVTVTWNSGSLSSGVHTFPAVLQSDLYTLSSSVTVPSSTWPSETVTCNVAHPASSTKVDKKIVPRDCGCKPCICTVKEVSKVFIFPPKPKDVLYITLEPKVTCVVVDISKDDPEVQFSWFVDDVEVHTAQTQPREEQFNSTFRSVSELPIMHQDWLNGKEFKCRVNSAAFPAPIEKTISKTKGRPKAPQVYTIPPPKEQMAKDKVSLTCMITDFFPEDITVEWQWNGQPAENYKNTQPIMDTDGSYFVYSKLNVQKSNWEAGNTFTCSVLHEGLKNHHTEKSLSHSPGK
light: DIQMTQTTSSLSASLGDRVTISCRASQDISSYLNWYQQKPDGTIKLLIYYTSRLHSGVPSRFSGSGSGTDYSLTINNLEQEDIATYFCQQGNTLPYTFGGGTKLEIKRADAAPTVSIFPPSSEQLTSGGASVVCFLNNFYPKDINVKWKIDGSERQNGVLNSWTDQDSKDSTYSMSSTLTLTKDEYERHNSYTCEATHKTSTSPIVKSFNRNEC
notes: copies: 2 + 2
B4: no binding (mouse FcγRIII); no binding (mouse FcγRIIb); no binding (mouse FcγRI).

B5: mPM1-mIgG1-mF40 (antibody)
heavy: B4 heavy with K429H, N430W
light: B4 light
notes: copies: 2 + 2
B5: no binding (mouse FcγRIII); no binding (mouse FcγRIIb); no binding (mouse FcγRI).

B6: GpH7-B3 D270W / GpL16-k0 (antibody, human IgG1)
heavy: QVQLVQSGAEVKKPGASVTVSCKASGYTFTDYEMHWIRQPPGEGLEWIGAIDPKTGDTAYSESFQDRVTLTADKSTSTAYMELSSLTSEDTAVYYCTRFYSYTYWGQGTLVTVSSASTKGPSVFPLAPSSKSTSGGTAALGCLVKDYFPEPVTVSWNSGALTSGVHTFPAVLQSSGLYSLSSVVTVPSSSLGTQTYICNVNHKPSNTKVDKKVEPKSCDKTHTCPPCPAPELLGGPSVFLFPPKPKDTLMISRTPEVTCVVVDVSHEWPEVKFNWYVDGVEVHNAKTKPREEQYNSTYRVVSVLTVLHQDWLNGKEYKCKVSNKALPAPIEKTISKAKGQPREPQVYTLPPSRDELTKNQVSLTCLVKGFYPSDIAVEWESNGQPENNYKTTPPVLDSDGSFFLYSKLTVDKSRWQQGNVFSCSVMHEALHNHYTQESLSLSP
light: DIVMTQSPLSLPVTPGEPASISCQASESLVHSNRNTYLHWYLQKPGQSPQLLIYKVSNRFSGVPDRFSGSGSGTDFTLKISRVEAEDVGVYYCSQNTHVPPTFGQGTKVEIE
notes: B3 variant: anti-glypican-3 IgG1 (constant region B3 = G1d with K439E) with one substitution, EU numbering; also called B3 variant D270W; copies: 2 + 2
For B6, the “relative binding activity (amount bound / amount bound by GpH7-B3/GpL16-k0 x100)” value (human FcγRIIb [6]) was -2 % of GpH7-B3/GpL16-k0.

B7: GpH7-B3/GpL16-k0 (antibody, human IgG1)
heavy: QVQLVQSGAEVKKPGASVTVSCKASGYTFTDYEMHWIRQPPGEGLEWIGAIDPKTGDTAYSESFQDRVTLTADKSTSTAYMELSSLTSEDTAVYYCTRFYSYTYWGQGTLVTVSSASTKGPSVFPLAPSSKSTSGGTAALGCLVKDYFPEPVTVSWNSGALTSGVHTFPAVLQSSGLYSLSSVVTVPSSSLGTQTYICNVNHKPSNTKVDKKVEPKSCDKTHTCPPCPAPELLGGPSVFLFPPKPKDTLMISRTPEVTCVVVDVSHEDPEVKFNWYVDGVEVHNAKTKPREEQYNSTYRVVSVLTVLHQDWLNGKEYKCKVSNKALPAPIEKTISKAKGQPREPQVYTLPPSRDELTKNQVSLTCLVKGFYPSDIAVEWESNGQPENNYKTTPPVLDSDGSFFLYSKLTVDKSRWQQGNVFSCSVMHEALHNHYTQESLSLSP
light: B6 light
notes: Anti-glypican-3 antibody, human IgG1 constant region B3
In the case of B7, the “relative binding activity (bound amount / bound amount of GpH7-G1d/GpL16-k0 x 100)” value (human FcγRIIIa(F)) is reported as 88.

Reference: patent US20140105889A1 (published 2014)
